The target in test [1] is T1, Cynomolgus monkey glycophorin A on Cynomolgus monkey red blood cells (Cynomolgus monkey).
T1 construct: whole, on cells; also called Cyno GPA; Cyno RBC
Put plainly: partition to Cyno RBC, human HemA plasma, 1 min.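 Note: FVIII fusion spiked at 1 IU/mL into RBC suspension at whole-blood density.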
Protocol: (§1) To evaluate partition to cynomolgus monkey or human red blood cells, whole blood was draw from Cynomolgus monkey or normal human volunteers in to anticoagulant with 4% sodium citrate (Sigma, St Louis, Mo.). The red blood cells were purified by layering the whole blood on to ficoll followed by low speed centrifugation. The supernatant containing plasma, platelets and white blood cells was discarded and the red blood cell pellet was resuspended in 10 pellet volumes of PBS (50 mM Phosphate buffer, pH7.4, 150 mM NaCl). The red blood cells were then pelleted by slow speed centrifugation and the red blood cells re-suspended in 10 volumes of PBS. This washing step was repeated 4 more times and the red blood cells finally resuspended in a volume of plasma from Hemophilia patients with less than 1% of normal levels of FVIII (GeorgeKing Bio-Medical, Overland Park, Kans.) to generate a total volume equal to the initial blood volume such that the RBC density was equal to that of normal whole blood. BDD and RBC targeted FVIII molecules were then spiked into RBC suspension in HemA plasma at 1 IU/mL, and incubated at room temperature for 2-3 hours with gentle rotation. […] An additional control was performed in which BDD or RBC targeted FVIII molecules were added at 11U/ml into the same human hemophilia A plasma and incubated for 5 minutes and 180 mins. These samples were used to determine the input FVIII activity in the presence of plasma which was used to calculate the percentage of the molecule that was bound to RBC. All plasma samples were then assayed together for FVIII activity using the Coatest SP assay (DiaPharma, Columbus, Ohio). The assay was performed following the manufacturer's instructions in a 96-well plate format. […] The plate was incubated at 37° C. for 10 minutes with shaking between each reagent addition.

The target of test [2] is T1, Cynomolgus monkey glycophorin A on …. Put plainly: partition to Cyno RBC, human HemA plasma, 5 min.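 Note: FVIII fusion spiked at 1 IU/mL into RBC suspension at whole-blood density.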
Protocol: as §1
Test [3] concerns the target T2, human glycophorin A on human red blood cells (human, UniProt P02724 20-150).
T2 construct: whole, on cells; also called human GPA; huGPA
T2 sequence (looked up): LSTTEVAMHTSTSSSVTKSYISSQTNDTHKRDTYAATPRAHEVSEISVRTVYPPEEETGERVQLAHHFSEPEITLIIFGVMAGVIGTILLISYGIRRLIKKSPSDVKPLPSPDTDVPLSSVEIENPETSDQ
Put plainly: partition to human RBC, human HemA plasma, 1 min.
Protocol: (§2) The supernatant containing plasma, platelets and white blood cells was discarded and the red blood cell pellet was resuspended in 10 pellet volumes of PBS (50 mM Phosphate buffer, pH7.4, 150 mM NaCl). The red blood cells were then pelleted by slow speed centrifugation and the red blood cells re-suspended in 10 volumes of PBS. This washing step was repeated 4 more times and the red blood cells finally resuspended in a volume of plasma from Hemophilia patients with less than 1% of normal levels of FVIII (GeorgeKing Bio-Medical, Overland Park, Kans.) to generate a total volume equal to the initial blood volume such that the RBC density was equal to that of normal whole blood. BDD and RBC targeted FVIII molecules were then spiked into RBC suspension in HemA plasma at 1 IU/mL, and incubated at room temperature for 2-3 hours with gentle rotation. […] An additional control was performed in which BDD or RBC targeted FVIII molecules were added at 11U/ml into the same human hemophilia A plasma and incubated for 5 minutes and 180 mins. These samples were used to determine the input FVIII activity in the presence of plasma which was used to calculate the percentage of the molecule that was bound to RBC. All plasma samples were then assayed together for FVIII activity using the Coatest SP assay (DiaPharma, Columbus, Ohio). The assay was performed following the manufacturer's instructions in a 96-well plate format. […] The plate was incubated at 37° C. for 10 minutes with shaking between each reagent addition. […] The amount of FVIII activity in the plasma reflects the amount of unbound FVIII. The FVIII activity of the same molecule spiked in to Hemophilia A plasma alone (no RBC) and incubated for 5 minutes was normalized to 100%.

Test [4] addresses T2, human glycophorin A on human red blood …. Put plainly: partition to human RBC, human HemA plasma, 5 min.
For test [5], the target named is T1, Cynomolgus monkey glycophorin A on …. Put plainly: partition to Cyno RBC, human HemA plasma, 15 min.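 Note: FVIII fusion spiked at 1 IU/mL into RBC suspension at whole-blood density.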
The target is the same in test [6]. The experiment in a line: partition to Cyno RBC, human HemA plasma, 30 min.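 Note: FVIII fusion spiked at 1 IU/mL into RBC suspension at whole-blood density.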
Test [7] shares this target. Put plainly: partition to Cyno RBC, human HemA plasma, 60 min.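 Note: FVIII fusion spiked at 1 IU/mL into RBC suspension at whole-blood density.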
Protocol: as §1
In test [8] the target is T2, human glycophorin A on human red blood …. The experiment in a line: partition to human RBC, human HemA plasma, 15 min.
Protocol: as §2
Test [9] has the same target. Put plainly: partition to human RBC, human HemA plasma, 30 min.
The target is the same in test [10]. The experiment in a line: partition to human RBC, human HemA plasma, 60 min.
Protocol: as §2
In test [11] the target is T1, Cynomolgus monkey glycophorin A on …. Put plainly: partition to Cyno RBC, human HemA plasma, 120 min.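 Note: FVIII fusion spiked at 1 IU/mL into RBC suspension at whole-blood density.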
Test [12] addresses T2, human glycophorin A on human red blood …. Put plainly: partition to human RBC, human HemA plasma, 120 min.
The target is the same in test [13]. Put plainly: partition to human RBC, human HemA plasma, 120 min. This is another data set of the same source.

B1: TPP-9900 FVIII-scFv fusion protein (other)
chain: DIQLTQSPSFLSASVGDRVTITCRASSSVRYIYWFQQKPGKAPKLLIYATSFRQSGVPSRFSGSGSGTEYTLTISSLQPEDFATYYCHQRNSFPYTFGQGTKLEIKGGGGSGGGGSGGGGSGGGGSEVQLVQSGAEVKKPGASVKVSCKASGYTFTTYAIHWVRQAPGQGLEWMGYINPSSGYTRYNPKFKGRVTMTRDKSTSTAYMELRSLRSDDTAVYYCWTGTRDYWGQGTTVTVSSGGGSGGGGSGLVPRGSGGGSGGGGSGATRRYYLGAVELSWDYMQSDLGELPVDARFPPRVPKSFPFNTSVVYKKTLFVEFTDHLFNIAKPRPPWMGLLGPTIQAEVYDTVVITLKNMASHPVSLHAVGVSYWKASEGAEYDDQTSQREKEDDKVFPGGSHTYVWQVLKENGPMASDPLCLTYSYLSHVDLVKDLNSGLIGALLVCREGSLAKEKTQTLHKFILLFAVFDEGKSWHSETKNSLMQDRDAASARAWPKMHTVNGYVNRSLPGLIGCHRKSVYWHVIGMGTTPEVHSIFLEGHTFLVRNHRQASLEISPITFLTAQTLLMDLGQFLLFCHISSHQHDGMEAYVKVDSCPEEPQLRMKNNEEAEDYDDDLTDSEMDVVRFDDDNSPSFIQIRSVAKKHPKTWVHYIAAEEEDWDYAPLVLAPDDRSYKSQYLNNGPQRIGRKYKKVRFMAYTDETFKTREAIQHESGILGPLLYGEVGDTLLIIFKNQASRPYNIYPHGITDVRPLYSRRLPKGVKHLKDFPILPGEIFKYKWTVTVEDGPTKSDPRCLTRYYSSFVNMERDLASGLIGPLLICYKESVDQRGNQIMSDKRNVILFSVFDENRSWYLTENIQRFLPNPAGVQLEDPEFQASNIMHSINGYVFDSLQLSVCLHEVAYWYILSIGAQTDFLSVFFSGYTFKHKMVYEDTLTLFPFSGETVFMSMENPGLWILGCHNSDFRNRGMTALLKVSSCDKNTGDYYEDSYEDISAYLLSKNNAIEPRSFSQNDENQSPRSFQKKTRHYFIAAVERLWDYGMSSSPHVLRNRAQSGSVPQFKKVVFQEFTDGSFTQPLYRGELNEHLGLLGPYIRAEVEDNIMVTFRNQASRPYSFYSSLISYEEDQRQGAEPRKNFVKPNETKTYFWKVQHHMAPTKDEFDCKAWAYFSDVDLEKDVHSGLIGPLLVCHTNTLNPAHGRQVTVQEFALFFTIFDETKSWYFTENMERNCRAPCNIQMEDPTFKENYRFHAINGYIMDTLPGLVMAQDQRIRWYLLSMGSNENIHSIHFSGHVFTVRKKEEYKMALYNLYPGVFETVEMLPSKAGIWRVECLIGEHLHAGMSTLFLVYSNKCQTPLGMASGHIRDFQITASGQYGQWAPKLARLHYSGSINAWSTKEPFSWIKVDLLAPMIIHGIKTQGARQKFSSLYISQFIIMYSLDGKKWQTYRGNSTGTLMVFFGNVDSSGIKHNIFNPPIIARYIRLHPTHYSIRSTLRMELMGCDLNSCSMPLGMESKAISDAQITASSYFTNMFATWSPSKARLHLQGRSNAWRPQVNNPKEWLQVDFQKTMKVTGVTTQGVKSLLTSMYVKEFLISSSQDGHQWTLFFQNGKVKVFQGNQDSFTPVVNSLDPPLLTRYLRIHPQSWVHQIALRMEVLGCEAQDLYGGGSGGGGSGLVPRGSGGGSGGGGSGDIQLTQSPSFLSASVGDRVTITCRASSSVRYIYWFQQKPGKAPKLLIYATSFRQSGVPSRFSGSGSGTEYTLTISSLQPEDFATYYCHQRNSFPYTFGQGTKLEIKGGGGSGGGGSGGGGSGGGGSEVQLVQSGAEVKKPGASVKVSCKASGYTFTTYAIHWVRQAPGQGLEWMGYINPSSGYTRYNPKFKGRVTMTRDKSTSTAYMELRSLRSDDTAVYYCWTGTRDYWGQGTTVTVSS
Take B1: the “% bound to Cyno RBC” value in test [1] turned out to be 30.9%; in test [2], 38.2%; in test [5], 40.6%; in test [6] it was 43.2%; in [7] it was 52.9%; in test [11], 55.1%. In addition, the “percentage bound to human RBC” value was found to be 19.3% in [3]; 34.4% in test [4]; 52% in test [8]; 57.7% in [9]; 66.9% in test [10]; 71.8% in [12]. For the same molecule, in test [13], the “percentage bound to human RBC” value amounted to 71.8%.

B2: TPP-9424 FVIII-scFv fusion protein (other)
chain: DIQLTQSPSFLSASVGDRVTITCRASSSVRYIYWFQQKPGKAPKLLIYATSFRQSGVPSRFSGSGSGTEYTLTISSLQPEDFATYYCHQRNSFPYTFGQGTKLEIKGGGGSGGGGSGGGGSGGGGSEVQLVQSGAEVKKPGASVKVSCKASGYTFTTYAIHWVRQAPGQGLEWMGYINPSSGYTRYNPKFKGRVTMTRDKSTSTAYMELRSLRSDDTAVYYCWTGTRDYWGQGTTVTVSSGGGSGGGGSGLVPRGSGGGSGGGGSGATRRYYLGAVELSWDYMQSDLGELPVDARFPPRVPKSFPFNTSVVYKKTLFVEFTDHLFNIAKPRPPWMGLLGPTIQAEVYDTVVITLKNMASHPVSLHAVGVSYWKASEGAEYDDQTSQREKEDDKVFPGGSHTYVWQVLKENGPMASDPLCLTYSYLSHVDLVKDLNSGLIGALLVCREGSLAKEKTQTLHKFILLFAVFDEGKSWHSETKNSLMQDRDAASARAWPKMHTVNGYVNRSLPGLIGCHRKSVYWHVIGMGTTPEVHSIFLEGHTFLVRNHRQASLEISPITFLTAQTLLMDLGQFLLFCHISSHQHDGMEAYVKVDSCPEEPQLRMKNNEEAEDYDDDLTDSEMDVVRFDDDNSPSFIQIRSVAKKHPKTWVHYIAAEEEDWDYAPLVLAPDDRSYKSQYLNNGPQRIGRKYKKVRFMAYTDETFKTREAIQHESGILGPLLYGEVGDTLLIIFKNQASRPYNIYPHGITDVRPLYSRRLPKGVKHLKDFPILPGEIFKYKWTVTVEDGPTKSDPRCLTRYYSSFVNMERDLASGLIGPLLICYKESVDQRGNQIMSDKRNVILFSVFDENRSWYLTENIQRFLPNPAGVQLEDPEFQASNIMHSINGYVFDSLQLSVCLHEVAYWYILSIGAQTDFLSVFFSGYTFKHKMVYEDTLTLFPFSGETVFMSMENPGLWILGCHNSDFRNRGMTALLKVSSCDKNTGDYYEDSYEDISAYLLSKNNAIEPRSFSQNDENQSPRSFQKKTRHYFIAAVERLWDYGMSSSPHVLRNRAQSGSVPQFKKVVFQEFTDGSFTQPLYRGELNEHLGLLGPYIRAEVEDNIMVTFRNQASRPYSFYSSLISYEEDQRQGAEPRKNFVKPNETKTYFWKVQHHMAPTKDEFDCKAWAYFSDVDLEKDVHSGLIGPLLVCHTNTLNPAHGRQVTVQEFALFFTIFDETKSWYFTENMERNCRAPCNIQMEDPTFKENYRFHAINGYIMDTLPGLVMAQDQRIRWYLLSMGSNENIHSIHFSGHVFTVRKKEEYKMALYNLYPGVFETVEMLPSKAGIWRVECLIGEHLHAGMSTLFLVYSNKCQTPLGMASGHIRDFQITASGQYGQWAPKLARLHYSGSINAWSTKEPFSWIKVDLLAPMIIHGIKTQGARQKFSSLYISQFIIMYSLDGKKWQTYRGNSTGTLMVFFGNVDSSGIKHNIFNPPIIARYIRLHPTHYSIRSTLRMELMGCDLNSCSMPLGMESKAISDAQITASSYFTNMFATWSPSKARLHLQGRSNAWRPQVNNPKEWLQVDFQKTMKVTGVTTQGVKSLLTSMYVKEFLISSSQDGHQWTLFFQNGKVKVFQGNQDSFTPVVNSLDPPLLTRYLRIHPQSWVHQIALRMEVLGCEAQDLY
notes: also called PPB 7888
Turning to B2, the “% bound to Cyno RBC” value in [1] is 62.9%; in test [2], 83%; in test [5], 87.2%; in test [6] it was 87.8%; in test [7], 89%; in [11], 89.1%. Besides, the “percentage bound to human RBC” value in test [3] came out at 76.5%; in [4], 90.5%; in [8], 94.4%; in test [9], 94.5%; in [10], 95.2%; in test [12], 95.6%. Moreover, the “percentage bound to human RBC” value in [13] was 95.6%.
